Assay results published in the supplement of paper PMC10567573.

B1: ANKRD9 (parent)
chain: VGAAGSARQELLGDRPRWQRLLGE

Variants of: B1
Assay: protein stability index of a GFP-peptide fusion (GPS, HEK-293T) (PSI 1-6); higher = more stable
Conditions: c terminus: a fixed tail appended
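Note: lentivirally expressed fusions sorted by FACS into six bins by GFP to DsRed ratio, PSI derived from sequencing read proportions per bin multiplied by bin number.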

Variant	protein stability index
VGAAGSNRQELLGDRPRWQRLLGE [A7N]	3.74
VGAAGSRRQELLGDRPRWQRLLGE [A7R]	3.08
VGAAGSYRQELLGDRPRWQRLLGE [A7Y]	2.43
VGAAGSFRQELLGDRPRWQRLLGE [A7F]	2.49
VGAAGSVRQELLGDRPRWQRLLGE [A7V]	2.73
VGAAGSPRQELLGDRPRWQRLLGE [A7P]	2.98
VGAAGSKRQELLGDRPRWQRLLGE [A7K]	2.94
VGAAGSQRQELLGDRPRWQRLLGE [A7Q]	4.21
VGAAGSLRQELLGDRPRWQRLLGE [A7L]	4.03
VGAAGSMRQELLGDRPRWQRLLGE [A7M]	3.87
VGAAGSDRQELLGDRPRWQRLLGE [A7D]	3.65
VGAAGSCRQELLGDRPRWQRLLGE [A7C]	3.44
VGAAGSERQELLGDRPRWQRLLGE [A7E]	5
VGAAGSSRQELLGDRPRWQRLLGE [A7S]	2.93
VGAAGSWRQELLGDRPRWQRLLGE [A7W]	2.53
VGAAGSTRQELLGDRPRWQRLLGE [A7T]	3.62
VGAAGSHRQELLGDRPRWQRLLGE [A7H]	3.36
VGAAGSIRQELLGDRPRWQRLLGE [A7I]	3.49
VGAAGSARQELPGDRPRWQRLLGE [L12P]	3.55
VGAAGSARQELFGDRPRWQRLLGE [L12F]	2.57
VGAAGSARQELGGDRPRWQRLLGE [L12G]	3.79
VGAAGSARQELIGDRPRWQRLLGE [L12I]	4.09
VGAAGSARQELEGDRPRWQRLLGE [L12E]	3.7
VGAAGSARQELAGDRPRWQRLLGE [L12A]	3.64

Variant	protein stability index
VGAAGSARQELMGDRPRWQRLLGE [L12M]	3.43
VGAAGSARQELVGDRPRWQRLLGE [L12V]	2.49
VGAAGSARQELNGDRPRWQRLLGE [L12N]	3.43
VGAAGSARQELQGDRPRWQRLLGE [L12Q]	3.27
VGAAGSARQELRGDRPRWQRLLGE [L12R]	2.12
VGAAGSARQELSGDRPRWQRLLGE [L12S]	4.15
VGAAGSARQELWGDRPRWQRLLGE [L12W]	2.35
VGAAGSARQELYGDRPRWQRLLGE [L12Y]	3.21
VGAAGSARQELHGDRPRWQRLLGE [L12H]	3.6
VGAAGSARQELKGDRPRWQRLLGE [L12K]	3.95
VGAAGSARQELDGDRPRWQRLLGE [L12D]	4.17
VGAAGSARQELTGDRPRWQRLLGE [L12T]	3
VGAAGSARDELLGDRPRWQRLLGE [Q9D]	3.7
VGAAGSARAELLGDRPRWQRLLGE [Q9A]	3.37
VGAAGSARLELLGDRPRWQRLLGE [Q9L]	2.81
VGAAGSARGELLGDRPRWQRLLGE [Q9G]	3.41
VGAAGSARNELLGDRPRWQRLLGE [Q9N]	2.74
VGAAGSARYELLGDRPRWQRLLGE [Q9Y]	2.27
VGAAGSARRELLGDRPRWQRLLGE [Q9R]	3.04
VGAAGSARCELLGDRPRWQRLLGE [Q9C]	2.56
VGAAGSARKELLGDRPRWQRLLGE [Q9K]	3.05
VGAAGSARPELLGDRPRWQRLLGE [Q9P]	3.29
VGAAGSARHELLGDRPRWQRLLGE [Q9H]	3.38
VGAAGSAREELLGDRPRWQRLLGE [Q9E]	2.11

Variant	protein stability index
VGAAGSARIELLGDRPRWQRLLGE [Q9I]	2.96
VGAAGSARFELLGDRPRWQRLLGE [Q9F]	2.81
VGAAGSARSELLGDRPRWQRLLGE [Q9S]	3.46
VGAAGSARTELLGDRPRWQRLLGE [Q9T]	3.13
VGAAGSARVELLGDRPRWQRLLGE [Q9V]	3.14
VGAAGSARMELLGDRPRWQRLLGE [Q9M]	3
VGAAGHARQELLGDRPRWQRLLGE [S6H]	2.88
VGAAGVARQELLGDRPRWQRLLGE [S6V]	2.86
VGAAGGARQELLGDRPRWQRLLGE [S6G]	2.85
VGAAGEARQELLGDRPRWQRLLGE [S6E]	3.88
VGAAGRARQELLGDRPRWQRLLGE [S6R]	2.62
VGAAGFARQELLGDRPRWQRLLGE [S6F]	2.85
VGAAGMARQELLGDRPRWQRLLGE [S6M]	3.65
VGAAGIARQELLGDRPRWQRLLGE [S6I]	2.27
VGAAGKARQELLGDRPRWQRLLGE [S6K]	2.72
VGAAGDARQELLGDRPRWQRLLGE [S6D]	3.8
VGAAGLARQELLGDRPRWQRLLGE [S6L]	2.49
VGAAGYARQELLGDRPRWQRLLGE [S6Y]	2.73
VGAAGCARQELLGDRPRWQRLLGE [S6C]	1.21
VGAAGTARQELLGDRPRWQRLLGE [S6T]	3.01
VGAAGAARQELLGDRPRWQRLLGE [S6A]	2.6
VGAAGNARQELLGDRPRWQRLLGE [S6N]	3.77
VGAAGSARQELLQDRPRWQRLLGE [G13Q]	2.76
VGAAGSARQELLKDRPRWQRLLGE [G13K]	3.39

Variant	protein stability index
VGAAGSARQELLRDRPRWQRLLGE [G13R]	2.81
VGAAGSARQELLTDRPRWQRLLGE [G13T]	2.97
VGAAGSARQELLLDRPRWQRLLGE [G13L]	2.66
VGAAGSARQELLCDRPRWQRLLGE [G13C]	2.77
VGAAGSARQELLDDRPRWQRLLGE [G13D]	2.73
VGAAGSARQELLHDRPRWQRLLGE [G13H]	3.46
VGAAGSARQELLVDRPRWQRLLGE [G13V]	2.63
VGAAGSARQELLYDRPRWQRLLGE [G13Y]	2.77
VGAAGSARQELLMDRPRWQRLLGE [G13M]	3.02
VGAAGSARQELLEDRPRWQRLLGE [G13E]	3.92
VGAAGSARQELLIDRPRWQRLLGE [G13I]	2.86
VGAAGSARQELLNDRPRWQRLLGE [G13N]	3.55
VGAAGSARQELLWDRPRWQRLLGE [G13W]	1.9
VGAAGSARQELLADRPRWQRLLGE [G13A]	3.9
VGAAGSARQELLPDRPRWQRLLGE [G13P]	3.7
VGAAGSARQELLSDRPRWQRLLGE [G13S]	2.72
VGAATSARQELLGDRPRWQRLLGE [G5T]	2.3
VGAASSARQELLGDRPRWQRLLGE [G5S]	4
VGAAYSARQELLGDRPRWQRLLGE [G5Y]	1.93
VGAAVSARQELLGDRPRWQRLLGE [G5V]	2.9
VGAARSARQELLGDRPRWQRLLGE [G5R]	2.27
VGAAMSARQELLGDRPRWQRLLGE [G5M]	2.37
